In patent US20180355003A1:

How the values were obtained:
Human IDO1 = Human IDO1 (UniProt P14902); experiment: ELISA
[1] = molecular target: His-tagged IDO1 human recombinant protein (71182, BPS Biosciences) (UniProt P14902); experiment: ELISA
His-tagged IDO1 human recombinant protein (71182, BPS Biosciences), sequence (P14902 2-403): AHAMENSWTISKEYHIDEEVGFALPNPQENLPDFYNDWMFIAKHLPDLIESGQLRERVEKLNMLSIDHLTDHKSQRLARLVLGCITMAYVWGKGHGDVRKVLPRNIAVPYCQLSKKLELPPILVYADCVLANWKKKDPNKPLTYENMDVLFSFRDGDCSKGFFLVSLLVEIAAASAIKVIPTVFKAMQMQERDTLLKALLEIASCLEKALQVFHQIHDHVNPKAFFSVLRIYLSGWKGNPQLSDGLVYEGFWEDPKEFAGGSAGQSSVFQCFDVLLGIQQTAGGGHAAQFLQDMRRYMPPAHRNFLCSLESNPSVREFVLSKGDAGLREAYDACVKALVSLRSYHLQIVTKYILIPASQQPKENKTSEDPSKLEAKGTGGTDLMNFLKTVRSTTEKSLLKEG

Human IDO1, sequence (P14902 2-403): as above

With w--ray the EC50 (Human IDO1) was 79 nM.

yray gave an EC50 (Human IDO1) of 113 nM.

Work on Biotin-PEG3-Cy(nlf(Me-Trp)a) yielded an EC50 [1] of 104 nM.

Work on ww(F-Phe) yielded an EC50 (Human IDO1) of 96 nM.
